Target: T1, Cathepsin G (CTSG) from mouse bone marrow cell lysates (mouse) (UniProt P28293)
T1 sequence (looked up): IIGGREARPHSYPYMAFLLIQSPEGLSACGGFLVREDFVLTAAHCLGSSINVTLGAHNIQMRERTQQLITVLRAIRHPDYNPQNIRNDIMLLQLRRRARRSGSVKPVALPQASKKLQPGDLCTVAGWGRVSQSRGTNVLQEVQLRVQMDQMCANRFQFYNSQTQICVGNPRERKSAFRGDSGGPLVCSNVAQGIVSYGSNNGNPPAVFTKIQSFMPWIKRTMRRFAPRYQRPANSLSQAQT
Test: cell-based or functional assay

B1: LKAb antibody (anti-Cathepsin G scFv, purified as scFv-Fc fusion protein) (Fc fusion, part only; not given: Fc tag, part only)
scFv, part: MAQVQLVQSGAEVKKPGASVKVSCKASGYTFTSYYMHWVRQAPGQGLEWMGGIIPIFGTGNYAQKFQGRVTITADESTSTAYMELSSLRSEDTAVYYCAREEEQQFSLDYWGQGTLVTVSSGGGGGLSNFMLTQPHSVSESPGKTVTISCTRSSGSIASNSVHWYQQRPGSAPTTVISENNQRPSGVPDRFSGSIDSSSNSASLTISGLKTEDEADYYCQSYDSNFHWVFGGGTQLTVLG
- decrease in CTSG enzymatic activity (cleavage of a specific substrate, release of pNA): 50%
